Results on 2 molecules are retold here after paper doi:10.1101/2020.10.20.346916 (bioRxiv, 2020).

Assay [1] deals with SARS-CoV-2 spike ectodomain (SARS-CoV-2, Wuhan-Hu-1, UniProt P0DTC2). Kind of assay: BLI.
Assay [2] has as its target HCoV-OC43 spike ectodomain (HCoV-OC43, strain Paris, UniProt Q696P8). The assay is described as follows: BLI. (BLI is a label-free optical method that tracks binding on a fibre tip over time.)
The target in assay [3] is GFP-tagged membrane-anchored full-length MHV spike protein (MHV, strain A59 (assumed as for the …, UniProt P11224)). Kind of assay: immunostaining of cells or tissue.
Assay [4] deals with MHV spike S2 ectodomain (MHV, strain A59, UniProt P11224). Kind of assay: ELISA. A general note: In an ELISA, binding on a coated surface is turned into a signal by an enzyme label.
Assay [5] deals with HCoV-HKU1 spike ectodomain (HCoV-HKU1, strain Caen1, UniProt E0YJ44, strain). The assay is described as follows: ELISA.

B1: human monoclonal antibody 28D9 (antibody, V domains shown)
VH: QVQLQQSGPGLVKPSQTLSLTCAISGDNVFSNSAAWNWIRQSPSRGLEWLGRTYYRSKWNNDYAVSVKGRITINPDTYKNQFSLQLNPVTPEDTAVYFCARVPMNRGGMDVWGQGTTVTVSS
VL: not shown
With B1, the results for the equilibrium dissociation constant (Kd) in assay [1] and in assay [2] were 5.96 nM and 7.45 nM, respectively. Besides, the binding result in assay [3] is reported as “binds”; in assay [4] it was “binds”; in assay [5], “no binding (tested: 10 μg/ml)”.

B2: human monoclonal antibody 1.6C7 (antibody, V domains shown)
VH: QVQLQQSGPGLVKPSQTLSLTCAISGDSVSSDSAAWNWIRQSPSRGLEWLGRTYFRSKWNNHYAVSVKSRITINPDTSKNQFSLLLNPVTPEDTAVYYCARATLARGALDYWGQGTLVTVSS
VL: not shown
In assay [2], B2 returned a Kd of 5.28 nM. The figures for the binding result in assay [3], in assay [4] and in assay [5] were “binds”, “binds” and “no binding (tested: 10 μg/ml)”, respectively.

Broadly, the Kd is the concentration at which binding is half-saturated. Low readings indicate a tighter complex, high ones a looser complex.
